Measurements: PMC6497155 (ACS infectious diseases, 2018)

Tests used:
ClpP2 = assay: Proteolytic activity of ClpP2 with DTT; type: biochemical, C. difficile; details: varying concentrations of DTT; incubation times exceeding 48 h
ClpX = details: 200 nM ClpP, 50 nM ClpX; relative to ClpX alone
[1] = Storage stability and concentration limit of purified ClpP; type: physicochemical; details: purified protein in activity buffer
[2] = Thermal stability of ClpP homotetradecamers; type: physicochemical

Compound	Stimulation of ClpP2 proteolytic activity by DTT (ClpP2)	Rate reduction of ClpX ATP hydrolysis (ClpX)	Concentration reached without any sign of precipitation [1]	Concentration above which less stability is exhibited [1]	Tm ([2]; no ADEP, SYPRO Orange, activity buffer (25 mM HEPES, 100 mM KCl, 5 mM MgCl2, 1 mM DTT, 10% glycerol), 25 to 85 °C in 0.3 °C increments, triplicate, Boltzmann fit) [°C]	Effect of reduced conditions on thermal stability ([2]; reduced conditions)
O[C@@H](CS)[C@@H](O)CS (racemic) [dithiothreitol (DTT), dithiothreitol]	failed to stimulate proteolytic activity	–	–	–	–	–
ClpP1: recombinant C. difficile ClpP1 (YP_001089821.1), homotetradecamer, prepared from ΔEcClpP E. coli unless otherwise noted	–	~ 18%	~ 60 mg/mL	–	–	–
ClpP2: recombinant C. difficile ClpP2 (YP_001089868.1), homotetradecamer	–	~ 7%	–	exceeding 12.5 mg/mL	46.5	no significant effect on the thermal stability
